This is an account of results in patent US20240294646A1.

The target of assay [1] is Soluble FcγRIIb extracellular domain with C-terminal 10×His tag (UniProt P31994). Nature of the assay: SPR (Protocol 2); ratio of FcγRIIb fold to FcγRIIaR fold over wild-type.
The target in assay [2] is Soluble FcγRIIaR extracellular domain with C-terminal 10×His tag (UniProt P12318). Briefly: SPR (Protocol 2): full-size antibody captured on immobilised HER2, soluble receptor as analyte; fold over wild-type.
Assay [3] has as its target Soluble FcγRIIb extracellular domain with C-terminal 10×His tag (UniProt P31994). The description is as above.
Assay [4] has as its target Soluble FcγRIIaR extracellular domain with C-terminal 10×His tag (UniProt P12318). Briefly: SPR; KD ratio against wild-type v16463. (In SPR one partner is held on a chip, and binding of the other changes the refractive index at the surface.)
Assay [5] addresses Soluble FcγRIIb extracellular domain with C-terminal 10×His tag (UniProt P31994). Briefly: SPR; KD ratio against wild-type v16463.
Assay [6] concerns the target Soluble FcγRIIaR extracellular domain with C-terminal 10×His tag (UniProt P12318). Nature of the assay: SPR, antibody captured on HER2 chip, receptor as analyte.
The target of assay [7] is Soluble FcγRIIb extracellular domain with C-terminal 10×His tag (UniProt P31994). The assay is described as above.
Assay [8] has the same target. Briefly: SPR; ratio of IIb-Fold to IIaR-Fold (FcγRIIb against FcγRIIaR).
Assay [9] addresses Biotinylated FcγRIIb extracellular domain-Fc fusion (human IgG1 Fc with L234A_L235A_D265S) (human) (UniProt P31994). Briefly: competition electrochemiluminescence assay; antibody on HER2, biotinylated FcγRIIb-Fc, competitor FcγRIIaR-Fc.
The target in assay [10] is Soluble FcγRIIb extracellular domain with C-terminal 10xHis tag (UniProt P31994). Briefly: SPR; IIb-Fold/IIaR-Fold (FcγRIIb against FcγRIIaR).
The target in assay [11] is Soluble FcγRIIaR extracellular domain with C-terminal 10xHis tag (UniProt P12318). Briefly: SPR; fold change in affinity over wild-type v16463.
The target in assay [12] is Soluble FcγRIIb extracellular domain with C-terminal 10xHis tag (UniProt P31994). Briefly: SPR; fold change in affinity over wild-type v16463.
Assay [13] has as its target Soluble FcγRIIaR extracellular domain with C-terminal 10xHis tag (UniProt P12318). Briefly: SPR (Biacore 4000), antibody captured on immobilised HER2, receptor as analyte.
Assay [14] deals with Soluble FcγRIIb extracellular domain with C-terminal 10xHis tag (UniProt P31994). The assay is described as above.
The target in assay [15] is Biotinylated FcγRIIb extracellular domain-Fc fusion (human IgG1 Fc with L234A_L235A_D265S) (human) (UniProt P31994). Briefly: competition electrochemiluminescence (MSD), antibody on coated HER2, biotinylated FcγRIIb-Fc with FcγRIIaR-Fc as competitor.
Assay [16] addresses Soluble FcγRIIaR extracellular domain with C-terminal 10×His tag (UniProt P12318). Nature of the assay: SPR; KD of WT v16463 / KD of variant.
Assay [17] deals with Soluble FcγRIIb extracellular domain with C-terminal 10×His tag (UniProt P31994). Briefly: SPR; KD of WT v16463 / KD of variant.
The target is the same in assay [18]. Briefly: SPR; IIb-Fold / IIaR-Fold (FcγRIIb against FcγRIIaR).
In assay [19] the target is Soluble FcγRIIaR extracellular domain with C-terminal 10×His tag (UniProt P12318). Nature of the assay: SPR (Biacore 4000), antibody captured on immobilised HER2, receptor as analyte.
Assay [20] deals with Soluble FcγRIIb extracellular domain with C-terminal 10×His tag (UniProt P31994). Described as above.
The target of assay [21] is FcγRIIaR, soluble extracellular domain (UniProt P12318). Nature of the assay: SPR; fold change in affinity over wild-type v16463.
Assay [22] concerns the target FcγRIIb, soluble extracellular domain (UniProt P31994). Nature of the assay: SPR; fold change in affinity over wild-type v16463.
Assay [23] has the same target. Briefly: SPR; IIb-Fold/IIaR-Fold (FcγRIIb against FcγRIIaR), vs. wild-type v16463.
The target in assay [24] is FcγRIIaR, soluble extracellular domain (UniProt P12318). Nature of the assay: SPR (General Methods Protocol 2): one-armed antibody captured on immobilised HER2, soluble receptor as analyte.
Assay [25] addresses FcγRIIb, soluble extracellular domain (UniProt P31994). Described as above.
Assay [26] has as its target FcγRIIb (UniProt P31994). Nature of the assay: SPR; IIb-Fold divided by IIaR-Fold, selectivity for FcγRIIb over FcγRIIaR relative to wild-type.
Assay [27] addresses FcγRIIIaF (UniProt P08637). Nature of the assay: SPR, antibody captured on HER2 chip, receptor as analyte; fold change in affinity over wild-type.
Assay [28] has as its target FcγRIIaH (UniProt P12318). Described as above.
In assay [29] the target is FcγRIIaR (UniProt P12318). The description is as above.
Assay [30] has as its target FcγRIIb (UniProt P31994). Described as above.
Assay [31] has as its target FcγRIa (UniProt P12314). The description is as above.

For “Variant 22128, full-size antibody (FSA) format of v19585 (trastuzumab, heterodimeric IgG1 Fc; A: L234F_G236N_H268Q_K274Q_A327G_A330K_P331S / B: L234F_G236D_S239D_V266L_S267A_H268D_K274Q_A327G_A330S_P331S)”, the IIb/IIaR Selectivity (IIb-Fold/IIaR-Fold) in assay [1] worked out at 11.3. In assay [2], this substance registered an IIaR-fold (fold change in affinity over wild-type) of 3.3 fold. In [3], this substance gave an IIb-fold (fold change in affinity over wild-type) of 37.4 fold.

A word on the Kd: it is a measure of binding affinity in units of concentration. Take “v12, IIb-specific comparator with symmetrical E233D_G237D_P238D_H268D_P271G_A330R (Mimoto et al. 2013), trastuzumab antibody”: in assay [4], the IIaR-fold stood at 1.4 fold. The IIb-Fold in [5] worked out at 112 fold. In addition, the results for the equilibrium dissociation constant (Kd) in [6] and in [7] were 220 nM and 13 nM, respectively. For the same substance, in assay [8], the IIb Selectivity (IIb-Fold/IIaR-Fold) was 80.5 fold. The ELISA (% of non-competed FcγRIIb signal in presence of 10x FcγRIIa) in assay [9] amounted to 100%.

Substance “v12, symmetrical E233D_G237D_P238D_H268D_P271G_A330R (IIb-specific comparator) (antibody)” returned an IIb Selectivity in [10] of 80.5 fold. Moreover, in [11], the IIaR-fold amounted to 1.4 fold. This substance also returned an IIb-Fold in [12] of 112 fold. The Kd was 220 nM in assay [13] and 13 nM in assay [14]. The ELISA (% of non-competed FcγRIIb signal in presence of 10x FcγRIIa) in assay [15] was found to be 100%.

Regarding “Variant 16463, wild-type one-armed trastuzumab antibody with heterodimeric IgG1 Fc”, in assay [16], the IIaR-fold came to 1 fold. This substance also showed an IIb-Fold in assay [17] of 1 fold. The same substance registered an IIb Selectivity in assay [18] of 1 fold. Moreover, the Kd turned out to be 310 nM in assay [19] and 1400 nM in assay [20].

In [21], “Variant 16463, wild-type one-armed trastuzumab antibody (OAA) with heterodimeric IgG1 Fc” yielded an IIaR-Fold vs. WT of 1 fold. Moreover, the IIb-Fold vs. WT in assay [22] was 1 fold. The same substance gave an IIb/IIaR Selectivity vs. WT in assay [23] of 1 fold. For the same substance, the Kd is 310 nM in assay [24] and 1400 nM in assay [25].

Turning to “v12 (OAA), IIb-specific comparator, trastuzumab one-armed antibody with symmetrical E233D_G237D_P238D_H268D_P271G_A330R”, in assay [26], the IIb/IIaR Selectivity (ratio (IIb-Fold/IIaR-Fold)) came out at 82.9. For the same substance, the FcγR Binding (Fold Change over WT) in assay [27] worked out at 0.1 fold over WT; in assay [28], 0.1 fold over WT; in assay [29] it was 1.4 fold over WT; in assay [30] it was 112 fold over WT; in assay [31], 0 fold over WT.

For “Variant 22127, full-size antibody (FSA) format of v19540 (trastuzumab, heterodimeric IgG1 Fc; A: L234D_G236N_S267A / B: G236D_S239D_V266L_S267A_H268D)”, in assay [1], the IIb/IIaR Selectivity (IIb-Fold/IIaR-Fold) turned out to be 15.2. The same substance showed an IIaR-fold (fold change in affinity over wild-type) in assay [2] of 1.6 fold. Also, the IIb-fold (fold change in affinity over wild-type) in assay [3] is 23.9 fold.
